In publication PMC2764445:
Read-outs that look alike come from different tables or passages of the source.

Key:
[1] = molecular target: T1, Hfq (His-tagged; natural Hfq used in some experiments) (UniProt P0A6X3 1-102); experiment: EMSA
[2] = molecular target: T1, Hfq (His-tagged; natural Hfq used in …); experiment: fluorescence anisotropy
[3] = molecular target: T1, Hfq (His-tagged; natural Hfq used in …); experiment: EMSA; remark: listed apart in the source

T1 sequence (P0A6X3 whole entry): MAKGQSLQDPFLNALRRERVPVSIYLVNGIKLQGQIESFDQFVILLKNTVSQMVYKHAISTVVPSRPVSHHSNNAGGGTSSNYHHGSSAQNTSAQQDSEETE

GCACUUAAAAAAUUCG (ssRNA) [R16]: binds [1].

CGAAUUUUUUAAGUGC (ssRNA) [D16-FAM] gave a Kd [2] of 0.023 ± 0.004 µM.

CCAGGGCACTTAAAAAATTCGCCTGG (ssDNA) [dMB-D16]: no binding [3].

CCCCTCGAATTTTTTAAGTGCAGGGG (ssDNA) [dMB-R16]: no binding [3].
